Six molecules from patent publication US20060264369, “Aptamers to von Willebrand Factor and their use as thrombotic disease therapeutics” (published 2006) can be followed below.

What is called IC50 is the concentration that inhibits the measured activity by half. A high value points to weaker potency. What is called Kd is the equilibrium constant for the complex coming apart.

Data set [1] addresses T1, von Willebrand factor full length (Homo sapiens, UniProt P04275 SEQ:764-2813). Briefly: flow; range 1.3-370 nM. The conditions noted are these: tags: Calbiochem 681300. How it is done:
Aptamer potency to block human vWF binding to lyophilized platelets was assessed by flow cytometric analysis. Titrations of aptamers (0 nM, 0.1 nM to 1000 nM) were pre-incubated briefly with 5 nM of full length human vWF in FACS buffer (PBS plus 0.5% bovine serum albumin) at room temperature in a volume of 50 uL. Another 50 uL containing 5 uL of lyophilized platelets plus 1 uL of 0.1 U/uL of botrocetin in FACS buffer was added to aptamer/vWF. This reaction was allowed to proceed for 15 minutes at 37 degrees C. after which 200 uL of FACS buffer was added. […] The pellets were resuspended in 100 uL of FACS buffer containing a 1:100 dilution of anti-vWF antibody and were incubated at room temperature for 30 minutes. […] The pellets were resuspended in a 1:100 solution of anti-IgG2a-FITC antibody and were incubated in the dark for 30 minutes at room temperature. The entire 100 uL was diluted into 200 uL of FACS buffer and analyzed immediately by flow cytometric analysis in the FACSCAN. […] Mean fluorescent intensity (“MFI”) readings were quantified for each sample analyzed by flow cytometry. […] IC₅₀ values were determined by fitting the percent inhibition of vWF binding to platelets as a function of aptamer concentration to the equation: % inhibition=% inhibitionₘₐₓ/(1+IC₅₀/aptamer conc.)

Data set [2] has as its target von Willebrand factor A1 domain (human) (Homo sapiens, UniProt P04275 SEQ:13-246). Briefly: filter; 100 nM protein. The source says: When a significant positive ratio of binding of RNA in the presence of human or rabbit vWF A1 domain (SEQ ID NOS […] and 6, respectively) versus in the absence of protein was seen, the pools were cloned using the TOPO TA cloning kit (Invitrogen Cat.# 45-0641, Carlsbad, Calif.) according to the manufacturer's instructions. Round 9 and 12 pool templates were cloned and sequenced (185 total sequences), producing 78 unique clones within 3 sequence families. All unique clones were transcribed, desalted, 5-³²P end-labeled, and assayed in a 3-point dot blot screen (no protein target control, 100 nM human vWF A1 domain (SEQ ID NO 5), or 100 nM rabbit vWF A1 domain (SEQ ID NO 6). The data are presented in the third and fourth columns of Table 9 below as the ratio of the fraction of the aptamer bound to the nitrocellulose in the presence of the target protein to the fraction of aptamer bound in the absence of the target protein. Of the three sequence families, members of Family #1 and # 2 and two individual, non-family aptamers, bound to both human vWF domain A1 (SEQ ID NO 5) and rabbit vWF domain A1 (SEQ ID NO 6).

Data set [3] has as its target T1, von Willebrand factor full length. Briefly: filter; 51% bound at 100 nM. Conditions: tags: Calbiochem 681300. How it is done:
(§1) For KD determination, chemically synthesized aptamers were purified using denaturing polyacrylamide gel electrophoresis, 5′end labeled with γ-³²P ATP and were tested for direct binding to full length human vWF (Calbiochem Cat.# 681300, La Jolla, Calif.). An 8 point protein titration was used in the dot blot binding assay (100 nM, 30 nM, 10 nM, 3 nM, 1 nM, 300 pM, 100 pM, 0 pM)) in 1× Dulbecco's PBS containing […] (final volume of 50 uL) for 30 minutes at room temperature. KD values were calculated by fitting the equation y=(max/(1+K/protein))+yint using KaleidaGraph (KaleidaGraph v. 3.51, Synergy Software).

The target is the same in data set [4]. Description: filter; 54% bound at 100 nM. Conditions: tags: Calbiochem 681300. The method, then: as §1
Data set [5] has the same target. Description: filter; 42% bound at 100 nM. Conditions: tags: Calbiochem 681300. How it is done: as §1
For data set [6] the target is unchanged. Briefly: filter; 32% bound at 100 nM. The conditions noted are these: tags: Calbiochem 681300. How it is done:
as §1

In the case of GGAGCCACACGACATTGGCGCGAGAGCGCATGGCTCC (mixed, ribo purines, deoxy pyrimidines) [rRdY minimer SEQ 201], the IC50 in data set [1] turned out to be 150 nM.

B1: AMX203.F9 (mixed)
DNA: GGAGCGCACTCAGCCACTGAAGGGTAAGGACGAGGAGGGTATACAGTGTGCGCGTGTATTTCGACCTCTCTGCTAGC
modifications: ribo purines, deoxy pyrimidines
Consider B1, for which the binding signal in data set [2] is 1.45 ratio to no protein.

Turning to GGCGTGCAGTGCCTTCGGCCGTGCGGTGCCTCCGTCACGCC (ssDNA, 2'-OMe at 39; 3'-idT) [ARC1232], in data set [3], the equilibrium dissociation constant (Kd) worked out at 1 nM.

For the molecule GGCGTGCAGTGCCUTCGGCCGTGCGGTGCCTCCGTCACGCC (ssDNA, 2'-OMe at 14 (mU); 3'-idT) [ARC1207], the dissociation constant (Kd) in data set [4] worked out at 2 nM. Turning to GGCGTGCAGTGCCTTCGGCCGTGCGGTGCCTCCGTCACGCC (ssDNA, 2'-OMe at 41; 3'-idT) [ARC1234], in data set [5], the dissociation constant Kd amounted to 2 nM.

Consider GGCGUGCAGTGCCTTCGGCCGTGCGGTGCCTCCGTCACGCC (ssDNA, 2'-OMe at 3,5,36,38,40,41; 3'-idT) [ARC1236], for which the Kd in data set [6] is 3 nM.
